Test results taken from PMC5977995.

Tests used:
[1] = target: T1, hnRNPA1 RNA-binding domain (human, UniProt P09651 1-196); test: EMSA
[2] = target: T1, hnRNPA1 RNA-binding domain; test: UV photo-cross-linking

T1 sequence (P09651 1-196): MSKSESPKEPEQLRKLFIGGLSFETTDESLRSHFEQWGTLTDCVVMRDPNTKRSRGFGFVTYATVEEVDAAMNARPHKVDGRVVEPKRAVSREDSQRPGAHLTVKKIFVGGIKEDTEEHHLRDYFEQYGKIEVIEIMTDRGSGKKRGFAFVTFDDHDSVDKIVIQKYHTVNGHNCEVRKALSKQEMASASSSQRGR

Row | Binder | Kd [1] [nM] | binding result [2]
1 | UUAGGGUUAGGGUUAGGGUUAGGG (structured_RNA) [24-mer telomere RNA] | 37.6 | –
2 | UUAGGGUUAGGG (structured_RNA, 5-bromouridine at position 8 (printed UUAGGGU(BrU)-AGGG)) [BrU 12-mer telomere RNA] | – | binds
